Our source for the self-cleavage values is the RNAGym collection of RNA variant scans (doi:10.7554/elife.80360).

B1: HDV Ribozyme (parent)
chain: GGCCGGCAUGGUCCCAGCCUCCUCGCUGGCGCCGGCUGGGCAACAUUCCGAGGGGACCGUCCCCUCGGUAAUGGCGAAUGGGACCCA

The variants in the data set derive from B1. In words: self-cleavage, relative activity (ratio to wild type); higher = more cleavage; co-transcriptional.
Take C15A C49U: the self-cleavage was 0.656.

For the variant C15A C49G, the self-cleavage is 0.166.

A16C C30G: the self-cleavage stood at 0.128.

In the case of A16C C30A, the self-cleavage worked out at 0.208.

In the case of A16C C58G, the self-cleavage was 0.532.

Consider C15G G34C, for which the self-cleavage was determined as 0.

Consider A16G A87C, for which the self-cleavage was found to be 1.09.

As to A16G G59A, the self-cleavage was 1.29.

For the variant A16G G59U, the self-cleavage was 1.11.

Turning to A16C C75G, the self-cleavage worked out at 0.268.

Consider A16C G34U, for which the self-cleavage worked out at 0.0489.

Take C15A G67A: the self-cleavage was found to be 0.499.

Consider A16C C48U, for which the self-cleavage came out at 0.677.

Regarding C15U G34A, the self-cleavage was found to be 0.173.

In the case of C15G C36U, the self-cleavage was 0.264.

As for A16C G29U, the self-cleavage was 0.0755.

For C15U C61U, the self-cleavage was determined as 0.882.

Consider C15U C61A, for which the self-cleavage was determined as 1.27.

As for C15A G25U, the self-cleavage came out at 0.0791.

With C15G C57U, the self-cleavage is 0.554.

Turning to C15G C57G, the self-cleavage is 0.692.

C15A C63U: the self-cleavage was found to be 0.649.

On to A16G G53A, for which the self-cleavage is 1.04.

As for C15G G31A, the self-cleavage is 0.138.

With C15U C57G, the self-cleavage stood at 1.06.

In the case of C15G G82A, the self-cleavage was 0.0978.

C15U U69C: the self-cleavage was 0.643.

In the case of A16G C49A, the self-cleavage is 1.08.

Regarding A16G C26U, the self-cleavage turned out to be 0.86.

As for A16G C26G, the self-cleavage is 0.831.

For A16G C26A, the self-cleavage was 0.867.

In the case of C14U C32U, the self-cleavage turned out to be 0.86.

With C15A A16G, the self-cleavage came out at 0.35.

On to C15A A16U, for which the self-cleavage is 0.499.

With C15G C86U, the self-cleavage was 0.791.

For the variant C15A G53A, the self-cleavage is 0.866.

C15G G76C: the self-cleavage worked out at 0.467.

Consider C15U C62G, for which the self-cleavage was determined as 0.851.

Take A16U A42G: the self-cleavage was 0.166.

In the case of C15G A16U, the self-cleavage amounted to 0.795.

As to C15G C61A, the self-cleavage came to 0.516.

For A16G G28U, the self-cleavage worked out at 0.0519.

C15U G39U: the self-cleavage was found to be 0.322.

For C15A C21U, the self-cleavage stood at 0.0415.

With C15A C21A, the self-cleavage amounted to 0.

Take C15G A51U: the self-cleavage stood at 0.475.

A16U A56U: the self-cleavage stood at 1.15.

In the case of A16C C62G, the self-cleavage is 0.403.

As to C15U A51U, the self-cleavage was determined as 1.08.

Consider A16G A83G, for which the self-cleavage worked out at 0.755.

A16G A83C: the self-cleavage was 0.462.

Consider C15U A83C, for which the self-cleavage stood at 0.65.

As to C15A G73A, the self-cleavage was 0.283.

Consider C14U G74U, for which the self-cleavage stood at 0.733.

On to C15A G80C, for which the self-cleavage is 0.222.

Take C15A G80U: the self-cleavage worked out at 0.899.

Take C14U G80C: the self-cleavage came to 0.314.

Regarding C14U G80U, the self-cleavage amounted to 0.4.

As for C14U G67A, the self-cleavage stood at 1.09.

For C15G G52C, the self-cleavage turned out to be 0.95.

As for C14U C75A, the self-cleavage is 0.208.

C15G G59U: the self-cleavage is 0.375.

In the case of C15A A56G, the self-cleavage amounted to 0.587.

C15A C36G: the self-cleavage was 0.145.

As for C15U A70U, the self-cleavage turned out to be 0.831.

Turning to C15A G81A, the self-cleavage was 0.57.

For C15U G59U, the self-cleavage was determined as 0.895.

As for C14U G55C, the self-cleavage was 1.05.

Take A16C C32G: the self-cleavage came to 0.293.

As to A16C C32U, the self-cleavage came out at 0.332.

A16G A42C: the self-cleavage came out at 0.0755.

For the variant A16G G38U, the self-cleavage was found to be 0.341.

Turning to A16G G29A, the self-cleavage came to 0.252.

For C15G G29A, the self-cleavage is 0.0339.

For the variant C15G G29C, the self-cleavage amounted to 0.

For C15G G55A, the self-cleavage came out at 0.522.

A16G C44U: the self-cleavage came out at 0.615.

Regarding A16G C44A, the self-cleavage is 0.748.

Regarding C15G C66U, the self-cleavage came to 0.573.

With A16C C57U, the self-cleavage came out at 0.719.

Take C15G C75U: the self-cleavage was determined as 0.237.

Regarding C15U C22G, the self-cleavage was 0.147.

With C14U G34C, the self-cleavage was determined as 0.172.

On to C15U G82A, for which the self-cleavage is 0.325.

On to A16G C21A, for which the self-cleavage turned out to be 0.

For the variant A16G C21G, the self-cleavage stood at 0.0875.

In the case of C14U C36U, the self-cleavage came to 0.96.

As to A16G C18G, the self-cleavage amounted to 0.111.

For the variant C15G G74A, the self-cleavage was 0.13.

As for C15U A56G, the self-cleavage amounted to 1.35.

Turning to C15G A83C, the self-cleavage came to 0.249.

On to C15G A83U, for which the self-cleavage amounted to 0.0791.

As to A16G A43G, the self-cleavage is 0.266.

With C15G G38U, the self-cleavage was 0.

Turning to C15A C58G, the self-cleavage is 1.02.

For C14U G38U, the self-cleavage turned out to be 0.271.

As for C15G C24U, the self-cleavage is 0.196.

For C15A C57G, the self-cleavage worked out at 0.623.

In the case of C15A C57U, the self-cleavage was 0.8.

Turning to C15A C57A, the self-cleavage came to 0.764.

Take A16C U72C: the self-cleavage is 0.227.

As for C15U U37G, the self-cleavage is 0.158.

Take C15A G29U: the self-cleavage stood at 0.

On to C15A G29C, for which the self-cleavage turned out to be 0.0692.

C14U C30U: the self-cleavage amounted to 0.489.

Regarding C14U C30A, the self-cleavage amounted to 0.675.

Regarding C15G C64U, the self-cleavage came out at 1.02.

In the case of C14U U46A, the self-cleavage turned out to be 0.554.

For A16G G17U, the self-cleavage turned out to be 0.643.

In the case of A16G G17C, the self-cleavage stood at 0.214.

Take A16C A43C: the self-cleavage was found to be 0.415.

Regarding C15U G25A, the self-cleavage stood at 0.0898.

For the variant C15A C75U, the self-cleavage turned out to be 0.141.

In the case of C14U C66U, the self-cleavage was 1.25.

With A16G C41A, the self-cleavage was found to be 0.798.

Consider A16G U69C, for which the self-cleavage turned out to be 1.15.

With A16G C61A, the self-cleavage worked out at 1.08.

As to A16G C61U, the self-cleavage worked out at 1.26.

Consider C15G G28C, for which the self-cleavage stood at 0.107.

In the case of C15G G35U, the self-cleavage was found to be 0.0396.

Consider A16G U46C, for which the self-cleavage was found to be 0.293.

Take C15G G73U: the self-cleavage came to 0.147.

With C15G G73A, the self-cleavage was found to be 0.162.

Turning to C15A C86A, the self-cleavage was 0.665.

As to C15A C33U, the self-cleavage stood at 0.427.

For the variant A16G G81A, the self-cleavage amounted to 0.604.

For C14U U20C, the self-cleavage was 0.133.

C15U A43U: the self-cleavage was 0.284.

For the variant A16C G17A, the self-cleavage is 0.519.

On to C15U G35C, for which the self-cleavage turned out to be 0.0723.

As for C15U G35A, the self-cleavage was found to be 0.475.

C15A G55A: the self-cleavage was found to be 0.796.

Take C15A C85G: the self-cleavage turned out to be 0.739.

With C15G G17U, the self-cleavage worked out at 0.243.

Turning to A16C C64A, the self-cleavage was found to be 0.895.

A16C C64G: the self-cleavage amounted to 0.554.

Consider A16C G81U, for which the self-cleavage came to 0.519.

A16C G81C: the self-cleavage was 0.346.

With A16C C66G, the self-cleavage is 0.554.

Consider C15U C49G, for which the self-cleavage is 0.485.

In the case of C15G U27C, the self-cleavage worked out at 0.277.

With C15G U27G, the self-cleavage stood at 0.104.

Turning to C14U G68C, the self-cleavage was found to be 0.733.

Regarding C15U G81A, the self-cleavage was 0.554.

Regarding C15U G81U, the self-cleavage turned out to be 0.554.

Consider C15A G28U, for which the self-cleavage came out at 0.0615.

For the variant A16C G31A, the self-cleavage came to 0.297.

For A16G G82A, the self-cleavage came out at 0.453.

With A16G G82C, the self-cleavage worked out at 0.172.

Regarding C15A C19G, the self-cleavage is 0.0519.

As for C15A C19U, the self-cleavage is 0.089.

For the variant C15A G68C, the self-cleavage was 0.458.

As for C15A G68A, the self-cleavage worked out at 0.511.

For the variant A16G C85A, the self-cleavage turned out to be 1.32.

Regarding C14U C58A, the self-cleavage was 1.13.

As to C14U C61G, the self-cleavage came to 1.08.

Take C14U C48U: the self-cleavage was 1.02.

As for C15U A78G, the self-cleavage is 0.332.

On to A16C A70G, for which the self-cleavage came to 0.923.

With C15A A77G, the self-cleavage worked out at 0.485.

Take C15A A77C: the self-cleavage was 0.0978.

As for C15G U79C, the self-cleavage was determined as 0.342.

For C15G U79G, the self-cleavage worked out at 0.391.

On to C15G A43U, for which the self-cleavage came out at 0.123.

Consider A16G A77G, for which the self-cleavage was determined as 0.831.

As to A16G C63A, the self-cleavage is 1.03.

C15U U46C: the self-cleavage was 0.9.
